These are literature values, as cited in PMC4426669.

Some results are limits rather than exact numbers.

This data set concerns the target eIF2B1 (Homo sapiens) (UniProt Q14232).

As a reminder, the Kd is the constant that tells how readily two partners part at equilibrium. In the case of eIF2B1 (from UniProt Q14232), the Kd is less than 1 nM.
